Data from patent US20030084477, “Genes enhancing disease resistance in plants” (published 2003).
Numbering of substitutions follows the chain as printed.

B1: wild type gln2 PR-box 2x (dsDNA)
DNA 1: CATAAGAGCCGCCACTAAAATAAGACCGATCAAATAAGAGCCGCCAT
DNA 2: ATGGCGGCTCTTATTTGATCGGTCTTATTTTAGTGGCGGCTCTTATG
B2: mutated PR-box 2x (dsDNA)
DNA 1: B1 DNA 1 with G8T, G11T, G40T, G43T
DNA 2: B1 DNA 2 with C5A, C8A, C37A, C40A

Tests used:
[1] = molecular target: T1, GST-Pti5 (Solanum lycopersicum, UniProt O04681 O04681:1-161); assay: EMSA; 25 mM Hepes pH 7.5, 40 mM KCl, 0.1 mM EDTA, 10% glycerol, 1 mM DTT, poly(dA-dT), room temp; WT sequence printed with stray 'to' in the middle; conditions: tags: N-terminal GST (pGEX, E. coli PR745; cDNA nt 82-782); label: 32P end label
T1 sequence (O04681 whole entry, the tested form may be a part, one chain of several): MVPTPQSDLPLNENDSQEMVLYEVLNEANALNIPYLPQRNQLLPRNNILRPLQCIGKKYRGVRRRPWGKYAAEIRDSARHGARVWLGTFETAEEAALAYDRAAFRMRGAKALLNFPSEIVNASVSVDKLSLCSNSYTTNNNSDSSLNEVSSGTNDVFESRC
Experimental: (§1) The wild type gln2 PR-box 2x ([…] to […]) and mutated PR-box 2x ([…]) were end-labeled by 32P as described by Ausubel, F. M., Brent, R., Kingston, R. E., Moore, D. D., Seidman, J. G., Smith, J. A., and Struhl, K. (1994). Current Protocols in Molecular Biology. (New York: Greene Publish Associates/John Wiley and Sons). Four fmol of probe was mixed with each of the purified GST-fusion proteins in a buffer containing 2 μg poly(dA-dT) (dA-dT), 25 mM Hepes (PH7.5), 40 mM KCl, 0.1 mM EDTA, 10% glycerol, and 1 mM DTT, incubated at room temperature for 15 minutes, and electrophoresed on a 4% polyacrylamide gel in 0.25×TBE buffer. Ohme-Takagi, M. and Shinshi, H. (1995). Ethylene-inducible DNA-binding proteins that interact with an ethylene-responsive element. Plant Cell 7, 173-182. The gel was subsequently dried and exposed to x-ray film. […] In contrast to GST-Pti5 and GST-Pti6, neither GST-Ptil nor GST itself bound to the PR-box.

[2] = molecular target: T1, GST-Pti5; assay: EMSA; no binding detected; conditions: tags: N-terminal GST (pGEX, E. coli PR745; cDNA nt 82-782); label: 32P end label
Experimental: as §1

Binder | binding result [1] | binding result [2]
B1 | binds | –
B2 | – | no binding
